This series deals with the molecule itself. Briefly: Thioflavin T fluorescence assay of amyloid-like fibril formation; 10 μM recombinant protein in PBS without sarkosyl, 30 μM ThT, 37 °C for up to 98 hours; in parallel with 40 μM EGCG, an inhibitor of fibril formation.

B1: unfused recombinant Plasmodium falciparum merozoite surface protein 2 (3D7 allele) (domain or fragment)
chain: KNESKYSNTFINNAYNMSIRRSMAESKPSTGAGGSAGGSAGGSAGGSAGGSAGGSAGSGDGNGADAEGSSSTPATTTTTKTTTTTTTTNDAEASTSTSSENPNHKNAETNPKGKGEVQEPNQANKETQNNSNVQQDSQTKSNVPPTQDADTKSPTAQPEQAENSAPTAEQTESPELQSAPENKGTGQHGHMHGSRNNHPQNTSDSQKECTDGNKENCGAATSLLNNSS
notes: Predicted molecular weight 24,721 daltons; also called rPfMSP2; rPfMSP2 (3D7); not shown: His6, N-terminal, kept
Regarding B1, the binding result is reported as “binds”.

These data come from publication PMC6588637, “Immunization with merozoite surface protein 2 fused to a Plasmodium-specific carrier protein elicits strain-specific and strain-transcending, opsonizing antibody” (Scientific Reports, 2019).
